# Measured values published in the supplement of paper PMC7125110.
# ± gives the standard error. Fewer inactive variants are shown than the library holds.
# B1: glmS ribozyme (parent)
# chain: AUAAAAGCGCCAGAACUACAGAAAUGUAGUUGACGAGGAGGAGGUUUAUCGAAUUUUCGGCGGAUGCCUCCAAA
# Experiments:
# Conditions in all cases: with glucosamine-6-phosphate
# glucosamine-6-phosphate [1] = variants of: B1; experiment: self-cleavage kobs at 40 uM GlcN6P; higher = faster cleavage; RNA array
# How it was run: (§1)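 Glucosamine-6-phosphate in HEPES/KCl/Mg(OAc)2 buffer, at 40 μM to 10 mM, was flowed over barcoded ribozyme variants transcribed in situ by E. coli RNA polymerase on sequenced MiSeq chips. Tracking was through a hybridised Cy3 probe at 37 °C. kobs, kcat and KM came from exponential decay fits and weighted Michaelis–Menten fits of normalised per-tile medians.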
# glucosamine-6-phosphate [2] = variants of: B1; experiment: self-cleavage kobs at 10000 uM GlcN6P; higher = faster cleavage; RNA array
# How it was run: as §1
# glucosamine-6-phosphate [3] = variants of: B1; experiment: self-cleavage kobs at 160 uM GlcN6P; higher = faster cleavage; RNA array
# How it was run: as §1
# glucosamine-6-phosphate [4] = variants of: B1; experiment: self-cleavage kobs at 640 uM GlcN6P; higher = faster cleavage; RNA array
# How it was run: as §1
# glucosamine-6-phosphate [5] = variants of: B1; experiment: self-cleavage kobs at 2500 uM GlcN6P; higher = faster cleavage; RNA array
# How it was run: as §1
Variant,self-cleavage kobs at 40 uM GlcN6P (glucosamine-6-phosphate [1]),self-cleavage kobs at 10000 uM GlcN6P (glucosamine-6-phosphate [2]),self-cleavage kobs at 160 uM GlcN6P (glucosamine-6-phosphate [3]),self-cleavage kobs at 640 uM GlcN6P (glucosamine-6-phosphate [4]),self-cleavage kobs at 2500 uM GlcN6P (glucosamine-6-phosphate [5])
A12G U57A,< 1e-05 s⁻¹,4.27e-05 ± 9.1e-06 s⁻¹,–,–,–
A48U G62U C68G,< 1e-05 s⁻¹,–,–,–,–
A6G U31A U46G C68G,< 1e-05 s⁻¹,< 1e-05 s⁻¹,–,–,–
G9U G51A,< 1e-05 s⁻¹,< 1e-05 s⁻¹,< 1e-05 s⁻¹,< 1e-05 s⁻¹,–
C10A A48U A52C A64G,< 1e-05 s⁻¹,–,–,–,–
A6U A15U A36G A52C,< 1e-05 s⁻¹,–,–,–,< 1e-05 s⁻¹
C10U C11G U65G,< 1e-05 s⁻¹,–,–,–,–
G9A U31G,< 1e-05 s⁻¹,–,< 1e-05 s⁻¹,–,< 1e-05 s⁻¹
G7U A52G C68G,0.000127 ± 4.6e-05 s⁻¹,0.000484 ± 0.00022 s⁻¹,–,–,–
G7A U55C,< 1e-05 s⁻¹,–,< 1e-05 s⁻¹,< 1e-05 s⁻¹,–
G40A U47C G62A A64C C70U,< 1e-05 s⁻¹,< 1e-05 s⁻¹,–,–,< 1e-05 s⁻¹
A6C G60U,< 1e-05 s⁻¹,< 1e-05 s⁻¹,< 1e-05 s⁻¹,< 1e-05 s⁻¹,< 1e-05 s⁻¹
C16G U65C C71G,< 1e-05 s⁻¹,< 1e-05 s⁻¹,–,–,–
C11U C34A,< 1e-05 s⁻¹,–,–,< 1e-05 s⁻¹,–
G9A A42C C71G,< 1e-05 s⁻¹,–,–,–,–
G35A C50A G51A,< 1e-05 s⁻¹,–,–,< 1e-05 s⁻¹,< 1e-05 s⁻¹
U31A G38U A42C U55G,< 1e-05 s⁻¹,–,–,< 1e-05 s⁻¹,–
A33C G63U,< 1e-05 s⁻¹,< 1e-05 s⁻¹,–,< 1e-05 s⁻¹,< 1e-05 s⁻¹
G40A G43A,< 1e-05 s⁻¹,< 1e-05 s⁻¹,–,< 1e-05 s⁻¹,< 1e-05 s⁻¹
U55G C70U,0.0011 ± 0.00013 s⁻¹,–,0.00151 ± 0.00031 s⁻¹,0.0043 ± 0.0011 s⁻¹,–
A36C G44A,< 1e-05 s⁻¹,< 1e-05 s⁻¹,< 1e-05 s⁻¹,< 1e-05 s⁻¹,< 1e-05 s⁻¹
C16A G32C G41C C68U C70A C71U,< 1e-05 s⁻¹,–,–,–,–
U45G C58U,< 1e-05 s⁻¹,–,< 1e-05 s⁻¹,–,–
C10U G29C G37A A53C,< 1e-05 s⁻¹,–,–,–,–

Variant,self-cleavage kobs at 40 uM GlcN6P (glucosamine-6-phosphate [1]),self-cleavage kobs at 10000 uM GlcN6P (glucosamine-6-phosphate [2]),self-cleavage kobs at 160 uM GlcN6P (glucosamine-6-phosphate [3]),self-cleavage kobs at 640 uM GlcN6P (glucosamine-6-phosphate [4]),self-cleavage kobs at 2500 uM GlcN6P (glucosamine-6-phosphate [5])
A14G G59C,< 1e-05 s⁻¹,–,–,< 1e-05 s⁻¹,–
C34U U65C,< 1e-05 s⁻¹,< 1e-05 s⁻¹,< 1e-05 s⁻¹,< 1e-05 s⁻¹,< 1e-05 s⁻¹
A36C G37A C58G,< 1e-05 s⁻¹,< 1e-05 s⁻¹,–,–,< 1e-05 s⁻¹
C16G C34G C50A A64G,< 1e-05 s⁻¹,–,–,–,–
G7A G32C,< 1e-05 s⁻¹,< 1e-05 s⁻¹,< 1e-05 s⁻¹,< 1e-05 s⁻¹,< 1e-05 s⁻¹
C10U U65A,< 1e-05 s⁻¹,< 1e-05 s⁻¹,< 1e-05 s⁻¹,< 1e-05 s⁻¹,< 1e-05 s⁻¹
G7A G32A C58A,< 1e-05 s⁻¹,< 1e-05 s⁻¹,–,–,–
U56A U69C,0.000222 ± 5.9e-05 s⁻¹,0.00286 ± 0.00081 s⁻¹,0.000288 ± 6e-05 s⁻¹,0.000693 ± 0.00019 s⁻¹,0.000572 ± 0.00015 s⁻¹
G7U A48U,< 1e-05 s⁻¹,< 1e-05 s⁻¹,< 1e-05 s⁻¹,< 1e-05 s⁻¹,< 1e-05 s⁻¹
A33G U47A,< 1e-05 s⁻¹,< 1e-05 s⁻¹,–,–,–
U56G G62U G63U,< 1e-05 s⁻¹,< 1e-05 s⁻¹,–,–,–
G13U G35U G63C A64U,< 1e-05 s⁻¹,–,–,–,–
A14G U46G C67A,0.000265 ± 6.3e-05 s⁻¹,0.00474 ± 0.0012 s⁻¹,–,–,–
G7U C50G C68G,0.000115 ± 2e-05 s⁻¹,0.000186 ± 3.4e-05 s⁻¹,0.000493 ± 0.00019 s⁻¹,–,0.000185 ± 6.6e-05 s⁻¹
G35A A48C U55G,< 1e-05 s⁻¹,–,–,–,–
A15G U47G G60A C61U C68A,6.07e-05 ± 2.7e-05 s⁻¹,–,–,0.000299 ± 9.2e-05 s⁻¹,0.00013 ± 3.6e-05 s⁻¹
A14U U46G G63A U65A C70G C71G,4.47e-05 ± 2e-05 s⁻¹,–,–,–,–
A6U C34G,< 1e-05 s⁻¹,< 1e-05 s⁻¹,< 1e-05 s⁻¹,–,< 1e-05 s⁻¹
G59U A64U,< 1e-05 s⁻¹,< 1e-05 s⁻¹,–,< 1e-05 s⁻¹,< 1e-05 s⁻¹
G43C G59C,< 1e-05 s⁻¹,< 1e-05 s⁻¹,< 1e-05 s⁻¹,< 1e-05 s⁻¹,< 1e-05 s⁻¹
A12G G35U C50U,< 1e-05 s⁻¹,–,–,–,–
U30G C71U,0.00033 ± 5e-05 s⁻¹,0.00769 ± 0.0016 s⁻¹,0.000449 ± 0.00011 s⁻¹,0.00135 ± 0.00022 s⁻¹,0.00639 ± 0.0013 s⁻¹
U46G C67G C68G,2.82e-05 ± 1.4e-05 s⁻¹,–,–,–,7.29e-05 ± 2.5e-05 s⁻¹
